This series has as its target Cas9 (Streptococcus pyogenes, UniProt Q99ZW2 SEQ:1-1368). Kind of series: DSF, no thermal shift with alien gRNA; 10 mM Hepes pH 7.5, 150 mM NaCl; 1 uM gRNA. Conditions: gRNA scaffold; printed as encoding DNA. The protocol: DSF was also used to examine Cas9 molecule/gRNA molecule complexes. S. pyogenes Cas9 alone, S. pyogenes Cas9 with 1 μM S. pyogenes gRNA, and S. pyogenes Cas9 with 1 μM S. aureus gRNA were tested in H150 (10 mM Hepes pH 7.5, 150 mM NaCl). The DNA sequences encoding the gRNA molecules used in these experiments were: […]

Cas9, sequence (Q99ZW2 whole entry): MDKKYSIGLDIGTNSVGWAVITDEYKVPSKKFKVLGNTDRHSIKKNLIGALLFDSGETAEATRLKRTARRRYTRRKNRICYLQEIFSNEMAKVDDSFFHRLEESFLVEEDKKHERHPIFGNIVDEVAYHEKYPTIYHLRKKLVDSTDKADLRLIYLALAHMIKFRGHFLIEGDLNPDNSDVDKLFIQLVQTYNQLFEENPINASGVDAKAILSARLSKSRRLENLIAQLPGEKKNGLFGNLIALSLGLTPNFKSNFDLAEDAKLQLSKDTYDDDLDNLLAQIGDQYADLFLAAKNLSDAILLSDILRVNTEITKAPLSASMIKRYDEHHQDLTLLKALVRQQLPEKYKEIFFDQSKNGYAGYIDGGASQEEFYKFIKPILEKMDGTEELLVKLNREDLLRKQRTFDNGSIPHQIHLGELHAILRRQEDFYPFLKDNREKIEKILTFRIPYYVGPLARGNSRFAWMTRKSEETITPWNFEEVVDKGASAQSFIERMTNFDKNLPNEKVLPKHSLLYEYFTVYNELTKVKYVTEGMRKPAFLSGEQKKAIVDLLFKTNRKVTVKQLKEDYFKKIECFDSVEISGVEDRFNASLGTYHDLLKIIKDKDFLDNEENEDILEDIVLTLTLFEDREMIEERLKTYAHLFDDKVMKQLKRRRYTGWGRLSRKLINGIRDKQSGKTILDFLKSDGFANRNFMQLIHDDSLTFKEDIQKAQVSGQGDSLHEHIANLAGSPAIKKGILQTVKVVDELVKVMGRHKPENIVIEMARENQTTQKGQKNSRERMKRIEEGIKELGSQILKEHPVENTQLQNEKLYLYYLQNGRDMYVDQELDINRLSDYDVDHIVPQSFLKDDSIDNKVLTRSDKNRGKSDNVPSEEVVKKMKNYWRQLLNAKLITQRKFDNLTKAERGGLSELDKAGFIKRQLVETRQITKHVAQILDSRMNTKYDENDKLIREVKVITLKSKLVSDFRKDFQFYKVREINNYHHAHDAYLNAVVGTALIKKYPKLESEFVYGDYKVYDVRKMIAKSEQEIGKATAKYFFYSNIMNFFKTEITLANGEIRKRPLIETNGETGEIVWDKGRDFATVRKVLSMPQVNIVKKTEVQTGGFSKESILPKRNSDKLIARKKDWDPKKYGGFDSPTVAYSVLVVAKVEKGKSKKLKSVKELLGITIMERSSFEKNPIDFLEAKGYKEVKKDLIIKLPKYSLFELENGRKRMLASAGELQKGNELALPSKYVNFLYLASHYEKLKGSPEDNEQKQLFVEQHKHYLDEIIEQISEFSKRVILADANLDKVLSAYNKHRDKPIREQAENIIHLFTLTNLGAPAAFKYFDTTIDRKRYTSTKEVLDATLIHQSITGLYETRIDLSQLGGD

B1: S. aureus gRNA scaffold (ssRNA)
RNA: GUUUUAGUACUCUGGAAACAGAAUCUACUAAAACAAGGCAAAAUGCCGUGUUUAUCUCGUCAACUUGUUGGCGAGAUUUU
Consider B1, for which the binding result is “no binding”.
